B1: Dynamin-1-like protein (Mus musculus), Q8K1M6-3 (parent)
chain: MEALIPVINKLQDVFNTVGADIIQLPQIVVVGTQSSGKSSVLESLVGRDLLPRGTGVVTRRPLILQLVHVSPEDKRKTTGEENGVEAEEWGKFLHTKNKLYTDFDEIRQEIENETERISGNNKGVSPEPIHLKVFSPNVVNLTLVDLPGMTKVPVGDQPKDIELQIRELILRFISNPNSIILAVTAANTDMATSEALKISREVDPDGRRTLAVITKLDLMDAGTDAMDVLMGRVIPVKLGIIGVVNRSQLDINNKKSVTDSIRDEYAFLQKKYPSLANRNGTKYLARTLNRLLMHHIRDCLPELKTRINVLAAQYQSLLNSYGEPVDDKSATLLQLITKFATEYCNTIEGTAKYIETSELCGGARICYIFHETFGRTLESVDPLGGLNTIDILTAIRNATGPRPALFVPEVSFELLVKRQIKRLEEPSLRCVELVHEEMQRIIQHCSNYSTQELLRFPKLHDAIVEVVTCLLRKRLPVTNEMVHNLVAIELAYINTKHPDFADACGLMNNNIEEQRRNRLARELPSAGSRDKVPSAGGGIGDGGQEPTTGNWRGMLKTSKAEELLAEEKSKPIPIMPASPQKGHAVNLLDVPVPVARKLSAREQRDCEVIERLIKSYFLIVRKNIQDSVPKAVMHFLVNHVKDTLQSELVGQLYKSSLLDDLLTESEDMAQRRKEAADMLKALQGASQIIAEIRETHLW

Experiments:
[1] = variants of: B1; details: with arp3_human ACTR3, P61158
[2] = variants of: B1; details: with cof1_human CFL1, P23528
cof1_human CFL1, P23528, sequence (P23528 whole entry): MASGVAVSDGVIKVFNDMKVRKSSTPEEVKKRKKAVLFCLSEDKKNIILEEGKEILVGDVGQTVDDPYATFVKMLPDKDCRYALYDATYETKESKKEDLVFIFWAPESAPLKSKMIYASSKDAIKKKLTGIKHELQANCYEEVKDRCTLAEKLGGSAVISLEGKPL

| Variant | effect of a mutation on the interaction [1] | effect of a mutation on the interaction [2] |
| --- | --- | --- |
| S600A | decreasing interaction strength | decreasing interaction strength |
| S600D | increasing interaction strength | increasing interaction strength |

From IntAct's records for PubMed 31063459
